The record followed here is patent publication US6878804B1, “Synthesis of template-fixed β-hairpin loop mimetics” (University of Zurich, priority 1999, dated 2005).

Non-standard residues stand in square brackets, D forms with d. Bounds are passed on as bounds.

First the molecules themselves.
T1: platelet-derived growth factor β-receptor (PDGFR-β)
T1 chain: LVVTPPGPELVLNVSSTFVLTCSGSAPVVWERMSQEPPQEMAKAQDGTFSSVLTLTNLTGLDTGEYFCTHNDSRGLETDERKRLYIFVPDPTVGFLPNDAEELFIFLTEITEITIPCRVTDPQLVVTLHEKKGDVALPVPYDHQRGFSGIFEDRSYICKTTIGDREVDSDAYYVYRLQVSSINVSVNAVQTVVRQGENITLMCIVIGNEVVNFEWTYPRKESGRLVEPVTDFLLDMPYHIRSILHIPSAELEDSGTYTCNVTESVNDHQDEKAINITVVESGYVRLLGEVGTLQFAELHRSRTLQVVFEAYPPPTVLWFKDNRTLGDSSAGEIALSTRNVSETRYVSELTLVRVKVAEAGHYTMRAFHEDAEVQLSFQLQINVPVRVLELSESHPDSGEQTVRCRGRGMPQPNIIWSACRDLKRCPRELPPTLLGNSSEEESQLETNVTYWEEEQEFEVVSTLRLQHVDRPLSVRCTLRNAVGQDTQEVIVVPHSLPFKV

B1: target cyclic peptide 16 (peptide)
peptide: cyclo(PWAVRKKAW[dP])
SMILES: CC(C)[C@@H]1NC(=O)[C@H](C)NC(=O)[C@H](Cc2c[nH]c3ccccc23)NC(=O)[C@@H]2CCCN2C(=O)[C@H]2CCCN2C(=O)[C@H](Cc2c[nH]c3ccccc23)NC(=O)[C@H](C)NC(=O)[C@H](CCCCN)NC(=O)[C@H](CCCCN)NC(=O)[C@H](CCCNC(=N)N)NC1=O
notes: also called ^LP-W-A-V-R / ^DP-W-A-K-K
B2: target cyclic peptide 14 (peptide)
peptide: cyclo(PWYVRKKYW[dP])
SMILES: CC(C)[C@@H]1NC(=O)[C@H](Cc2ccc(O)cc2)NC(=O)[C@H](Cc2c[nH]c3ccccc23)NC(=O)[C@@H]2CCCN2C(=O)[C@H]2CCCN2C(=O)[C@H](Cc2c[nH]c3ccccc23)NC(=O)[C@H](Cc2ccc(O)cc2)NC(=O)[C@H](CCCCN)NC(=O)[C@H](CCCCN)NC(=O)[C@H](CCCNC(=N)N)NC1=O
notes: also called ^LP-W-Y-V-R / ^DP-W-Y-K-K
B3: target cyclic peptide 22 (peptide)
peptide: cyclo(PAAVRKKAA[dP])
SMILES: CC(C)[C@@H]1NC(=O)[C@H](C)NC(=O)[C@H](C)NC(=O)[C@@H]2CCCN2C(=O)[C@H]2CCCN2C(=O)[C@H](C)NC(=O)[C@H](C)NC(=O)[C@H](CCCCN)NC(=O)[C@H](CCCCN)NC(=O)[C@H](CCCNC(=N)N)NC1=O
notes: also called ^LP-A-A-V-R / ^DP-A-A-K-K
B4: target cyclic peptide 12 (peptide)
peptide: cyclo(PYKVRKKKY[dP])
SMILES: CC(C)[C@@H]1NC(=O)[C@H](CCCCN)NC(=O)[C@H](Cc2ccc(O)cc2)NC(=O)[C@@H]2CCCN2C(=O)[C@H]2CCCN2C(=O)[C@H](Cc2ccc(O)cc2)NC(=O)[C@H](CCCCN)NC(=O)[C@H](CCCCN)NC(=O)[C@H](CCCCN)NC(=O)[C@H](CCCNC(=N)N)NC1=O
notes: also called ^LP-Y-K-V-R / ^DP-Y-K-K-K
B5: target cyclic peptide 17 (peptide)
peptide: cyclo(PWSVRKKSW[dP])
SMILES: CC(C)[C@@H]1NC(=O)[C@H](CO)NC(=O)[C@H](Cc2c[nH]c3ccccc23)NC(=O)[C@@H]2CCCN2C(=O)[C@H]2CCCN2C(=O)[C@H](Cc2c[nH]c3ccccc23)NC(=O)[C@H](CO)NC(=O)[C@H](CCCCN)NC(=O)[C@H](CCCCN)NC(=O)[C@H](CCCNC(=N)N)NC1=O
notes: also called ^LP-W-S-V-R / ^DP-W-S-K-K
B6: target cyclic peptide 1 (peptide)
peptide: cyclo(PEIVRKKPI[dP])
SMILES: CC[C@H](C)[C@@H]1NC(=O)[C@H](CCC(=O)O)NC(=O)[C@@H]2CCCN2C(=O)[C@H]2CCCN2C(=O)[C@H]([C@@H](C)CC)NC(=O)[C@@H]2CCCN2C(=O)[C@H](CCCCN)NC(=O)[C@H](CCCCN)NC(=O)[C@H](CCCNC(=N)N)NC(=O)[C@H](C(C)C)NC1=O
notes: mimic of PDGF loop III on a diproline template; also called compound 1
B7: target cyclic peptide 24 (peptide)
peptide: cyclo(PAKVRKKKA[dP])
SMILES: CC(C)[C@@H]1NC(=O)[C@H](CCCCN)NC(=O)[C@H](C)NC(=O)[C@@H]2CCCN2C(=O)[C@H]2CCCN2C(=O)[C@H](C)NC(=O)[C@H](CCCCN)NC(=O)[C@H](CCCCN)NC(=O)[C@H](CCCCN)NC(=O)[C@H](CCCNC(=N)N)NC1=O
notes: also called ^LP-A-K-V-R / ^DP-A-K-K-K
B8: target cyclic peptide 19 (peptide)
peptide: cyclo(PAIVRKKPA[dP])
SMILES: CC[C@H](C)[C@@H]1NC(=O)[C@H](C)NC(=O)[C@@H]2CCCN2C(=O)[C@H]2CCCN2C(=O)[C@H](C)NC(=O)[C@@H]2CCCN2C(=O)[C@H](CCCCN)NC(=O)[C@H](CCCCN)NC(=O)[C@H](CCCNC(=N)N)NC(=O)[C@H](C(C)C)NC1=O
notes: also called ^LP-A-I-V-R / ^DP-A-P-K-K
B9: target cyclic peptide 20 (peptide)
peptide: cyclo(PAYVRKKYA[dP])
SMILES: CC(C)[C@@H]1NC(=O)[C@H](Cc2ccc(O)cc2)NC(=O)[C@H](C)NC(=O)[C@@H]2CCCN2C(=O)[C@H]2CCCN2C(=O)[C@H](C)NC(=O)[C@H](Cc2ccc(O)cc2)NC(=O)[C@H](CCCCN)NC(=O)[C@H](CCCCN)NC(=O)[C@H](CCCNC(=N)N)NC1=O
notes: also called ^LP-A-Y-V-R / ^DP-A-Y-K-K
B10: target cyclic peptide 23 (peptide)
peptide: cyclo(PASVRKKSA[dP])
SMILES: CC(C)[C@@H]1NC(=O)[C@H](CO)NC(=O)[C@H](C)NC(=O)[C@@H]2CCCN2C(=O)[C@H]2CCCN2C(=O)[C@H](C)NC(=O)[C@H](CO)NC(=O)[C@H](CCCCN)NC(=O)[C@H](CCCCN)NC(=O)[C@H](CCCNC(=N)N)NC1=O
notes: also called ^LP-A-S-V-R / ^DP-A-S-K-K
B11: target cyclic peptide 21 (peptide)
peptide: cyclo(PAWVRKKWA[dP])
SMILES: CC(C)[C@@H]1NC(=O)[C@H](Cc2c[nH]c3ccccc23)NC(=O)[C@H](C)NC(=O)[C@@H]2CCCN2C(=O)[C@H]2CCCN2C(=O)[C@H](C)NC(=O)[C@H](Cc2c[nH]c3ccccc23)NC(=O)[C@H](CCCCN)NC(=O)[C@H](CCCCN)NC(=O)[C@H](CCCNC(=N)N)NC1=O
notes: also called ^LP-A-W-V-R / ^DP-A-W-K-K
B12: target cyclic peptide 13 (peptide)
peptide: cyclo(PWIVRKKPW[dP])
SMILES: CC[C@H](C)[C@@H]1NC(=O)[C@H](Cc2c[nH]c3ccccc23)NC(=O)[C@@H]2CCCN2C(=O)[C@H]2CCCN2C(=O)[C@H](Cc2c[nH]c3ccccc23)NC(=O)[C@@H]2CCCN2C(=O)[C@H](CCCCN)NC(=O)[C@H](CCCCN)NC(=O)[C@H](CCCNC(=N)N)NC(=O)[C@H](C(C)C)NC1=O
notes: also called ^LP-W-I-V-R / ^DP-W-P-K-K
B13: target cyclic peptide 18 (peptide)
peptide: cyclo(PWKVRKKKW[dP])
SMILES: CC(C)[C@@H]1NC(=O)[C@H](CCCCN)NC(=O)[C@H](Cc2c[nH]c3ccccc23)NC(=O)[C@@H]2CCCN2C(=O)[C@H]2CCCN2C(=O)[C@H](Cc2c[nH]c3ccccc23)NC(=O)[C@H](CCCCN)NC(=O)[C@H](CCCCN)NC(=O)[C@H](CCCCN)NC(=O)[C@H](CCCNC(=N)N)NC1=O
notes: also called ^LP-W-K-V-R / ^DP-W-K-K-K
B14: target cyclic peptide 11 (peptide)
peptide: cyclo(PYSVRKKSY[dP])
SMILES: CC(C)[C@@H]1NC(=O)[C@H](CO)NC(=O)[C@H](Cc2ccc(O)cc2)NC(=O)[C@@H]2CCCN2C(=O)[C@H]2CCCN2C(=O)[C@H](Cc2ccc(O)cc2)NC(=O)[C@H](CO)NC(=O)[C@H](CCCCN)NC(=O)[C@H](CCCCN)NC(=O)[C@H](CCCNC(=N)N)NC1=O
notes: also called ^LP-Y-S-V-R / ^DP-Y-S-K-K
B15: target cyclic peptide 10 (peptide)
peptide: cyclo(PYAVRKKAY[dP])
SMILES: CC(C)[C@@H]1NC(=O)[C@H](C)NC(=O)[C@H](Cc2ccc(O)cc2)NC(=O)[C@@H]2CCCN2C(=O)[C@H]2CCCN2C(=O)[C@H](Cc2ccc(O)cc2)NC(=O)[C@H](C)NC(=O)[C@H](CCCCN)NC(=O)[C@H](CCCCN)NC(=O)[C@H](CCCNC(=N)N)NC1=O
notes: also called ^LP-Y-A-V-R / ^DP-Y-A-K-K

This assay deals with T1, platelet-derived growth factor …. The assay can be described thus: solid-phase competition, displacement of 125I-PDGF-BB from plate-immobilised PDGFR-β. (In general: In a radioligand displacement assay an active substance lowers the binding of a labelled ligand.)
One may read the IC50 as the concentration at which inhibition is half-maximal. Read a low IC50 as higher potency. Molecule B1 had an IC50 of 800 µM.
Molecule B2 came in with an IC50 of 170 µM.
Take B3: the IC50 is < 2500 µM.
With B4, the 50% inhibitory concentration (IC50) came to 1500 µM.
On to cyclo(PYWVRKKWY[dP]) (also called ^LP-Y-W-V-R / ^DP-Y-W-K-K) [target cyclic peptide 9], for which the IC50 was found to be 500 µM.
In the case of B5, the half-maximal inhibitory concentration (IC50) was 800 µM.
Regarding B6, the IC50 worked out at 2200 µM.
For B7, the half-inhibitory concentration (IC50) was 2500 µM.
The value for B8 was < 2500 µM.
The molecule B9 returned an IC50 of 2000 µM.
The molecule B10 showed a 50% inhibitory concentration (IC50) of 2500 µM.
B11 displayed a half-inhibitory concentration (IC50) of 2000 µM.
The value for B12 was 260 µM; that for B13 was 500 µM.
In turn, B14 displayed an IC50 of 2000 µM.
B15: the 50% inhibitory concentration (IC50) turned out to be 2000 µM.
